A word on the stoichiometry N: it is a count of units in the complex or per binding partner.

Where “and” joins values, the source holds several entries; their conditions need not be identical. Equal values may be shown once. Read-outs that look alike come from different tables or passages of the source.

What all share (conditions): remark: other sources report otherwise
For assay [1], the target named is T1, human CTC1-STN1-TEN1 (CST) heterotrimeric complex (human), Q2NKJ3.
T1 chain 1: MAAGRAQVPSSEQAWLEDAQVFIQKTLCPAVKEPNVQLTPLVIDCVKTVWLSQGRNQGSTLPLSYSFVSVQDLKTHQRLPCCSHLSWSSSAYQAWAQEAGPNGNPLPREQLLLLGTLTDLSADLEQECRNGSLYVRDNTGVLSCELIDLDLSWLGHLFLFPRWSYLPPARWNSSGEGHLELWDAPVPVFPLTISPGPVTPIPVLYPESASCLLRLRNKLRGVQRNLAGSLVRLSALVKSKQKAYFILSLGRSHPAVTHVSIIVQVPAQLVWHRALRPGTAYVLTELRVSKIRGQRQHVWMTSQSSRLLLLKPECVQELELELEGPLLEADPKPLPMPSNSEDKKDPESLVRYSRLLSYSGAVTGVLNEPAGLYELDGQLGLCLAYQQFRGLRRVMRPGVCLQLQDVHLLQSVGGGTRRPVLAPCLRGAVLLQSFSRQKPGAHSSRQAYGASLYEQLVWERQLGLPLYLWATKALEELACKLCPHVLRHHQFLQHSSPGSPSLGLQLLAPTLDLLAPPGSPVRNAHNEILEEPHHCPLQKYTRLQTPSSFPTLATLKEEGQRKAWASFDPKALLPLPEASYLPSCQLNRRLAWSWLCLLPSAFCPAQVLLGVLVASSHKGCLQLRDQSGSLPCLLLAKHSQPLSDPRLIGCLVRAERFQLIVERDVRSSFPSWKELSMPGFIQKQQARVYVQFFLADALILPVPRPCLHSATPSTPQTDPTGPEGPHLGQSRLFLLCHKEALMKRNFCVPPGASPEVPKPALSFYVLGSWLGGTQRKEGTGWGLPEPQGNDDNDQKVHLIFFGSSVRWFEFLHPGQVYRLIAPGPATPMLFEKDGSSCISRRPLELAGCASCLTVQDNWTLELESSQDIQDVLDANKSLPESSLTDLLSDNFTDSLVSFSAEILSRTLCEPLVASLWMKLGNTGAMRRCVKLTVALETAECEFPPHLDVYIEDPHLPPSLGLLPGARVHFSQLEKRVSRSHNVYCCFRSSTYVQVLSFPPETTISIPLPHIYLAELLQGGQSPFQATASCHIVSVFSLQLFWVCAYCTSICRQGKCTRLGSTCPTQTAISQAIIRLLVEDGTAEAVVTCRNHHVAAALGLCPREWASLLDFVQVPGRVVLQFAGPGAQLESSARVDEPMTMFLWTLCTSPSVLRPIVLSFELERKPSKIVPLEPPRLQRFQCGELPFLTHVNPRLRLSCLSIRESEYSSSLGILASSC
T1 chain 2: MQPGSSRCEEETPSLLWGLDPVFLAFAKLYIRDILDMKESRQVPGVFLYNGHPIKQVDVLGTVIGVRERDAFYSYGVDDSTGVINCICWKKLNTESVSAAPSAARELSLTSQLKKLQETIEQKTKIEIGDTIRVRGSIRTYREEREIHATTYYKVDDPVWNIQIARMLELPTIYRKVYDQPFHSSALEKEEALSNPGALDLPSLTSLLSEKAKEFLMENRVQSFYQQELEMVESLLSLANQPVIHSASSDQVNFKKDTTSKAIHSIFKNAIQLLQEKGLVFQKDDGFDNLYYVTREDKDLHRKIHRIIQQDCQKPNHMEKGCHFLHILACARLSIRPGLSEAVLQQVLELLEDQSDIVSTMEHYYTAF
T1 chain 3: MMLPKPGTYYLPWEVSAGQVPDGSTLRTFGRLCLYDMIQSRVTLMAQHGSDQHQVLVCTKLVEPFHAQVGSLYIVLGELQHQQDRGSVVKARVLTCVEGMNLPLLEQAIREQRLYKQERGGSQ

The target in assay [2] is T1, human CTC1-STN1-TEN1 (CST) …. Put plainly: cryo-EM structure.
Assay [3] shares this target. Nature of the assay: negative-stain EM single-particle analysis.
Assay [4] shares this target. Put plainly: negative-stain EM single-particle analysis.

B1: human CTC1-STN1-TEN1 (CST) heterotrimeric complex, Q2NKJ3;Q9H668;Q86WV5 (complex)
chain 1: MAAGRAQVPSSEQAWLEDAQVFIQKTLCPAVKEPNVQLTPLVIDCVKTVWLSQGRNQGSTLPLSYSFVSVQDLKTHQRLPCCSHLSWSSSAYQAWAQEAGPNGNPLPREQLLLLGTLTDLSADLEQECRNGSLYVRDNTGVLSCELIDLDLSWLGHLFLFPRWSYLPPARWNSSGEGHLELWDAPVPVFPLTISPGPVTPIPVLYPESASCLLRLRNKLRGVQRNLAGSLVRLSALVKSKQKAYFILSLGRSHPAVTHVSIIVQVPAQLVWHRALRPGTAYVLTELRVSKIRGQRQHVWMTSQSSRLLLLKPECVQELELELEGPLLEADPKPLPMPSNSEDKKDPESLVRYSRLLSYSGAVTGVLNEPAGLYELDGQLGLCLAYQQFRGLRRVMRPGVCLQLQDVHLLQSVGGGTRRPVLAPCLRGAVLLQSFSRQKPGAHSSRQAYGASLYEQLVWERQLGLPLYLWATKALEELACKLCPHVLRHHQFLQHSSPGSPSLGLQLLAPTLDLLAPPGSPVRNAHNEILEEPHHCPLQKYTRLQTPSSFPTLATLKEEGQRKAWASFDPKALLPLPEASYLPSCQLNRRLAWSWLCLLPSAFCPAQVLLGVLVASSHKGCLQLRDQSGSLPCLLLAKHSQPLSDPRLIGCLVRAERFQLIVERDVRSSFPSWKELSMPGFIQKQQARVYVQFFLADALILPVPRPCLHSATPSTPQTDPTGPEGPHLGQSRLFLLCHKEALMKRNFCVPPGASPEVPKPALSFYVLGSWLGGTQRKEGTGWGLPEPQGNDDNDQKVHLIFFGSSVRWFEFLHPGQVYRLIAPGPATPMLFEKDGSSCISRRPLELAGCASCLTVQDNWTLELESSQDIQDVLDANKSLPESSLTDLLSDNFTDSLVSFSAEILSRTLCEPLVASLWMKLGNTGAMRRCVKLTVALETAECEFPPHLDVYIEDPHLPPSLGLLPGARVHFSQLEKRVSRSHNVYCCFRSSTYVQVLSFPPETTISIPLPHIYLAELLQGGQSPFQATASCHIVSVFSLQLFWVCAYCTSICRQGKCTRLGSTCPTQTAISQAIIRLLVEDGTAEAVVTCRNHHVAAALGLCPREWASLLDFVQVPGRVVLQFAGPGAQLESSARVDEPMTMFLWTLCTSPSVLRPIVLSFELERKPSKIVPLEPPRLQRFQCGELPFLTHVNPRLRLSCLSIRESEYSSSLGILASSC
chain 2: MQPGSSRCEEETPSLLWGLDPVFLAFAKLYIRDILDMKESRQVPGVFLYNGHPIKQVDVLGTVIGVRERDAFYSYGVDDSTGVINCICWKKLNTESVSAAPSAARELSLTSQLKKLQETIEQKTKIEIGDTIRVRGSIRTYREEREIHATTYYKVDDPVWNIQIARMLELPTIYRKVYDQPFHSSALEKEEALSNPGALDLPSLTSLLSEKAKEFLMENRVQSFYQQELEMVESLLSLANQPVIHSASSDQVNFKKDTTSKAIHSIFKNAIQLLQEKGLVFQKDDGFDNLYYVTREDKDLHRKIHRIIQQDCQKPNHMEKGCHFLHILACARLSIRPGLSEAVLQQVLELLEDQSDIVSTMEHYYTAF
chain 3: MMLPKPGTYYLPWEVSAGQVPDGSTLRTFGRLCLYDMIQSRVTLMAQHGSDQHQVLVCTKLVEPFHAQVGSLYIVLGELQHQQDRGSVVKARVLTCVEGMNLPLLEQAIREQRLYKQERGGSQ
With B1, the stoichiometry N in assay [1] was 10; in assay [2], 10; in assay [3], 4 and 2; in assay [4] it was 10.

The record behind these values is paper doi:10.1101/815886.
